Literature values, collected in PMC8886532.
pKd: −log10 of the molar value.

Biological target: kinetochore receptor (KNL1) (Homo sapiens) (UniProt Q8NG31)
Sequence of UniProt Q8NG31 (Q8NG31 whole entry): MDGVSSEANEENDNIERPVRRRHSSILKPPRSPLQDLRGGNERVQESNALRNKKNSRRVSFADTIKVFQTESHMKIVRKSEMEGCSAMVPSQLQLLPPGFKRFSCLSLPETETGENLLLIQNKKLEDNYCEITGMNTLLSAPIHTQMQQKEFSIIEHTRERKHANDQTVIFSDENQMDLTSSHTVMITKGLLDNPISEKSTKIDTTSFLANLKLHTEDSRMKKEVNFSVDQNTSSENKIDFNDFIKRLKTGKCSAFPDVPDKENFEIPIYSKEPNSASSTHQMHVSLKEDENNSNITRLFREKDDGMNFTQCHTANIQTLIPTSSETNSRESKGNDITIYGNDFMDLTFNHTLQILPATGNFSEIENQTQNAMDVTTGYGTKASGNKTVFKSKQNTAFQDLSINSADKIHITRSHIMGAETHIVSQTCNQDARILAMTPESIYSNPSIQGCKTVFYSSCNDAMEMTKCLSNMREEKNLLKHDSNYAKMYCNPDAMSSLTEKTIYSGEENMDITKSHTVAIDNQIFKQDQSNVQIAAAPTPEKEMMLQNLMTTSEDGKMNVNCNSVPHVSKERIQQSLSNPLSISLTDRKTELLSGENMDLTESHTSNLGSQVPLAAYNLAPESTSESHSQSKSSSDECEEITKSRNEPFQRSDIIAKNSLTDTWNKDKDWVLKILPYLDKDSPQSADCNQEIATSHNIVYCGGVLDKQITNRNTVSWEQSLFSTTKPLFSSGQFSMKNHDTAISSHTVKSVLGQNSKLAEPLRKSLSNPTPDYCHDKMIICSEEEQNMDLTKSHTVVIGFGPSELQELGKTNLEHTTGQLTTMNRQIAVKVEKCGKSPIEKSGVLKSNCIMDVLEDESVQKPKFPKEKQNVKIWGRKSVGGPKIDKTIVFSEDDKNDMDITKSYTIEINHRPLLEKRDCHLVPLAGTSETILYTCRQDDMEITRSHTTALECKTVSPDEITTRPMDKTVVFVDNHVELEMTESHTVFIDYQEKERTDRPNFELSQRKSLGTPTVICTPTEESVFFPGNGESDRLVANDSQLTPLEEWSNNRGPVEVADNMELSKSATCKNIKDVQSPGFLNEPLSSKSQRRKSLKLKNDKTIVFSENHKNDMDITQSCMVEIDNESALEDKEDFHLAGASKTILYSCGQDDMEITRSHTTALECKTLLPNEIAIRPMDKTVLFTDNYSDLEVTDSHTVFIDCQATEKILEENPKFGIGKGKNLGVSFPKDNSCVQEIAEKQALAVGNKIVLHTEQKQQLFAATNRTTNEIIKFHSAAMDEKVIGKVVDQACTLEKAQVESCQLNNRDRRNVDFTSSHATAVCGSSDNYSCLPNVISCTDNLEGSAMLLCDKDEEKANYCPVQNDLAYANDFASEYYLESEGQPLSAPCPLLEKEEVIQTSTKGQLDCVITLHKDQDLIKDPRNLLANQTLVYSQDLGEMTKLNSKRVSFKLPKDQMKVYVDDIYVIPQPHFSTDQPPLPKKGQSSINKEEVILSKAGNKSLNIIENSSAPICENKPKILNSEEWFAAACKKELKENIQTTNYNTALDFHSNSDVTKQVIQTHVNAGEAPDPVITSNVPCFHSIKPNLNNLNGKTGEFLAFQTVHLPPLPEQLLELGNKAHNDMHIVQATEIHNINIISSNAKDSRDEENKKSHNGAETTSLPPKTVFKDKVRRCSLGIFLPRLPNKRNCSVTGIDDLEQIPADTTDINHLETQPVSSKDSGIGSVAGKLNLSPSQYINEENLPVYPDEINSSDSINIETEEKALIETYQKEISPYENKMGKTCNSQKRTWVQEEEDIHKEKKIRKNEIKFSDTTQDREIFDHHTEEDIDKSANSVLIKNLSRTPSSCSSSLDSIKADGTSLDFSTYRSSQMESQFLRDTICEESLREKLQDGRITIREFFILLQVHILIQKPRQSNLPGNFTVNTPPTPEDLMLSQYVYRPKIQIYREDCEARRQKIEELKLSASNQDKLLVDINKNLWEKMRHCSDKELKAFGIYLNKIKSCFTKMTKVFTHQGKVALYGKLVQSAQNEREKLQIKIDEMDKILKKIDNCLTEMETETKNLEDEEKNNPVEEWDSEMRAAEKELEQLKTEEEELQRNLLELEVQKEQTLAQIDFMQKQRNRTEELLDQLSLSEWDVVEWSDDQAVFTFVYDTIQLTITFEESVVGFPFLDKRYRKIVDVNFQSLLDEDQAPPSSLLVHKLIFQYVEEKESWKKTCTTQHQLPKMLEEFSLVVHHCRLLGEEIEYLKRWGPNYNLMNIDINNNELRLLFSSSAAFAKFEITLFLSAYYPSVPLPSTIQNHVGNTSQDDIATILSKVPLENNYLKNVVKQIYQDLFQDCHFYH

- pKd: 7.00
Substance: BUB1/BUB3 complex (from UniProt O43683)
